Test results taken from article PMC4820727.

Experiments:
Test in all cases: flow cytometry on cells; Adh adhesion to 293T cells displaying the candidate protein from pDisplay; adhesion rate compared with the control group
[1] = target: CARD displayed on the surface of 293T cells (pDisplay) (pig (protein identified from porcine alveolar macrophages; source of the cDNA not stated))
[2] = target: RAB14 displayed on the surface of 293T cells (pDisplay) (pig (protein identified from porcine alveolar macrophages; source of the cDNA not stated)) (UniProt Q52NJ6)
[3] = target: OR5M11 displayed on the surface of 293T cells (pDisplay) (pig (protein identified from porcine alveolar macrophages; source of the cDNA not stated))
[4] = target: RAB1B displayed on the surface of 293T cells (pDisplay) (pig (protein identified from porcine alveolar macrophages; source of the cDNA not stated)) (UniProt Q06AU7)

Measured: fold increase of the adhesion rate over the control group

Chain of UniProt Q52NJ6 (Q52NJ6 whole entry): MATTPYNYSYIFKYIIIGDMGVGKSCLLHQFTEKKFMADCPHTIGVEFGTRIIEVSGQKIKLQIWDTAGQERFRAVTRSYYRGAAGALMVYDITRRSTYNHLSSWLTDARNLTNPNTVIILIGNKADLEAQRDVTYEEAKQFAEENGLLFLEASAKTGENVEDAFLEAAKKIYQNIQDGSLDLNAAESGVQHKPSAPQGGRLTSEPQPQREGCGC
Chain of UniProt Q06AU7 (Q06AU7 whole entry): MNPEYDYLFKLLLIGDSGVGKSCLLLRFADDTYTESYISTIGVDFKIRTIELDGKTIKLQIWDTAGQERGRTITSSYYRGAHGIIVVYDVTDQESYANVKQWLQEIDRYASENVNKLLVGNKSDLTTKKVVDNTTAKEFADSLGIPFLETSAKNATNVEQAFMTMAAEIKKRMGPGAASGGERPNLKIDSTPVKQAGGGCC

Adh, the 68-612 aa head domain of the trimeric autotransporter adhesin Apa1 of Actinobacillus pleuropneumoniae (domain or fragment)
> 3 fold: all assays above
